Eight molecules from US20140073518A1 can be followed below.

Like-named read-outs stand apart in the source and are kept apart here. Ends that are not written are not given here.

Assay [1] addresses integrins on PC3 cells (adhesion to vitronectin). Description: cell-based or functional assay.
Assay [2] shares this target. The assay is described as follows: cell-based or functional assay. This is another data set of the same source.
For assay [3] the target is unchanged.
Assay [4] addresses human umbilical vein endothelial cells (HUVECs), which express medium levels of the αvβ3, αvβ5 integrins, the Met receptor, and a high level of the α5β1 integrin. Description: HUVEC cell binding assay.

B1: AgRP mutant 7A (designed binder)
chain: GCVRLHESCLGQQVPCCDPAATCYCSGRGDNDLVCYCR
modifications: ends and bridges not checked; also: four disulfide bonds, pairings not given here
In assay [1], B1 had a Half-maximal inhibitor concentration, inhibition of PC3 cell adhesion to human vitronectin of 20 to 40 nM.

As for GCPRPRGDNPPLTCKQDSDCLAGCVCGPNGFCG (designed binder) [EETI-II mutant 2.5F], the Half-maximal inhibitor concentration, inhibition of PC3 cell adhesion to human vitronectin in assay [2] is 20 to 40 nM.

B2: knottin 2.5F-Fc (EETI 2.5F fused to the Fc domain of mouse Ig2a) (Fc fusion)
chain: GCPRPRGDNPPLTCKQDSDCLAGCVCGPNGFCGEPRGPTIKPCPPCKCPAPNLLGGPSVFIFPPKIKDVLMISLSPIVTCVVVDVSEDDPDVQISWFVNNVEVHTAQTQTHREDYNSTLRVVSALPIQHQDWMSGKEFKCKVNNKDLPAPIERTISKPKGSVRAPQVYVLPPPEEEMTKKQVTLTCMVTDFMPEDIYVEWTNNGKTELNYKNTEPVLDSDGSYFMYSKLRVEKKNWVERNSYSCSVVHEGLHNHHTTKSFSRTPGK
B2 registered an IC50 (read off the curve), PC3 cell adhesion to vitronectin in assay [3] of 10 nM.

B3: knottin 2.5D-Fc (EETI 2.5D fused to the Fc domain of mouse Ig2a) (Fc fusion)
chain: GCPQGRGDWAPTSCKQDSDCRAGCVCGPNGFCGEPRGPTIKPCPPCKCPAPNLLGGPSVFIFPPKIKDVLMISLSPIVTCVVVDVSEDDPDVQISWFVNNVEVHTAQTQTHREDYNSTLRVVSALPIQHQDWMSGKEFKCKVNNKDLPAPIERTISKPKGSVRAPQVYVLPPPEEEMTKKQVTLTCMVTDFMPEDIYVEWTNNGKTELNYKNTEPVLDSDGSYFMYSKLRVEKKNWVERNSYSCSVVHEGLHNHHTTKSFSRTPGK
In turn, B3 displayed an IC50 (read off the curve), PC3 cell adhesion to vitronectin in assay [3] of 10 nM.

B4: AgRP7A-Aras4 fusion protein (soluble, FLAG and His tagged) (designed binder)
chain: DYKDDDDKPRGCVRLHESCLGQQVPCCDPAATCYCSGRGDNDLVCYCRYAEGQGKRRNTIHEFKKSAKTTLIKIDPALRIKTEKANTADQCANRCTRSKGLPFTCKAFVFDKARKRCLWFPFNSMSSGVKKEFGHEFDLYENKAYIRDCIIGRGRNYRGTVSITKSGIKCQPWSAMIPHEHSFLPSSYRGEDLRENYCRNPRGEEGGPWCYTSDPEVRYEVCDIPQCSEVETRHHHHHH
The molecule B4 displayed a Half-maximal inhibitor concentration, inhibition of PC3 cell adhesion to human vitronectin in assay [1] of 20 to 40 nM.

B5: AgRp7A-M2.2(D127A) fusion protein (designed binder)
chain: DYKDDDDKPRGCVRLHESCLGQQVPCCDPAATCYCSGRGDNDLVCYCRYAEGQRKRRNTIHEFKKSAKTTLIKIDPALKIKTEKVNTADQCANRCTRNKGLPFTCKAFVFDKARKRCLWFPFNSMSSGVKKEFGHEFDLYENKDYIRACIIGNGRSYRGTVSITKSGIKCQPWSSMIPHEHSFLPSSYRGEDLRENYCRNPRGEEGGPWCFTSDPEVRYEVCDIPQCSEVETRHHHHHH
For B5, in assay [4], the Kd was 9.4 nM.

B6: EETI2.5F-Aras4 fusion protein (designed binder)
chain: DYKDDDDKPRGCPRPRGDNPPLTCSQDSDCLAGCVCGPNGFCGYAEGQGKRRNTIHEFKKSAKTTLIKIDPALRIKTEKANTADQCANRCTRSKGLPFTCKAFVFDKARKRCLWFPFNSMSSGVKKEFGHEFDLYENKAYIRDCIIGRGRNYRGTVSITKSGIKCQPWSAMIPHEHSFLPSSYRGEDLRENYCRNPRGEEGGPWCYTSDPEVRYEVCDIPQCSEVETRHHHHHH
For the molecule B6, the Half-maximal inhibitor concentration, inhibition of PC3 cell adhesion to human vitronectin in assay [1] lay within 20 to 40 nM.

B7: EETI2.5F-M2.2(D127A) fusion protein (designed binder)
chain: DYKDDDDKPRGCPRPRGDNPPLTCSQDSDCLAGCVCGPNGFCGYAEGQRKRRNTIHEFKKSAKTTLIKIDPALKIKTEKVNTADQCANRCTRNKGLPFTCKAFVFDKARKRCLWFPFNSMSSGVKKEFGHEFDLYENKDYIRACIIGNGRSYRGTVSITKSGIKCQPWSSMIPHEHSFLPSSYRGEDLRENYCRNPRGEEGGPWCFTSDPEVRYEVCDIPQCSEVETRHHHHHH
The molecule B7 displayed a Kd in assay [4] of 4.7 nM.

As usually defined, the Kd is the concentration at which binding is half-saturated.
